Measurements from US20230314433A1 (KURUME UNIVERSITY, published 2023).

Assays:
[1] = target: T1, human MDA5 protein (full-length, about 120 kDa) (human, UniProt Q9BYX4 1-1025); assay: Western blot of normal lung and lung cancer tissues, mAb at 1 ug/mL
T1 construct: Endogenous cytoplasmic protein in human tissue sections, tissue lysates and PBMCs (band of about 120 kDa); also called IFIH1
T1 sequence: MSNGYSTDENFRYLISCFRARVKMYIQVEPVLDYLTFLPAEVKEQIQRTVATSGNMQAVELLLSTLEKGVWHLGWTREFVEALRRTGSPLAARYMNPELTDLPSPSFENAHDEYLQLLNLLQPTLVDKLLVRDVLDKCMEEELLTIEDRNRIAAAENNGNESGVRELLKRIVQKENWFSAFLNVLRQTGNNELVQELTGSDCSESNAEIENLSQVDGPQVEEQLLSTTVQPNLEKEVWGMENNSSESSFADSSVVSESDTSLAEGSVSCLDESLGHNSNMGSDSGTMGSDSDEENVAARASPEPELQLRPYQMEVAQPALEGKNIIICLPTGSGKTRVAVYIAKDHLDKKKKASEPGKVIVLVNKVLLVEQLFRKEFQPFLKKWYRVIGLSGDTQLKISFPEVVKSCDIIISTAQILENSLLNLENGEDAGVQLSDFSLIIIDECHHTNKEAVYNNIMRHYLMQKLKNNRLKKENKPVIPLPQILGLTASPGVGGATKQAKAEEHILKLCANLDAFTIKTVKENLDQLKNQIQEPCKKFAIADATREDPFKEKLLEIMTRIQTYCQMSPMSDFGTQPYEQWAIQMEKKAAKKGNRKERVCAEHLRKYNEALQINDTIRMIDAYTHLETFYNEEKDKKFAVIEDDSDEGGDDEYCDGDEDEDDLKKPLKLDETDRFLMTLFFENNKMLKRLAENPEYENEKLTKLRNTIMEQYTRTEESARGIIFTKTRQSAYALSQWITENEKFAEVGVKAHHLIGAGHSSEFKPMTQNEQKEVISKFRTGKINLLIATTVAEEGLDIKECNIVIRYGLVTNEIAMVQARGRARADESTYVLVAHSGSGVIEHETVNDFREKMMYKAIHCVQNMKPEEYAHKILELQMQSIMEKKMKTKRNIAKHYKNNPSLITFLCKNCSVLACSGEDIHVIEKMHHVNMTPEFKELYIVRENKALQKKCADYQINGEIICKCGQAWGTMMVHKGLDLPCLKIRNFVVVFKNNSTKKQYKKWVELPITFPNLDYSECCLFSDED
Procedure: Western blotting analysis was performed by using NuPAGE (registered trademark) 7% Tris-Acetate Midi Gel (Thermo Fisher Scientific, Tokyo, Japan) according to the manufacture’s protocol. Anti-human MDA5 mAb (clone H27 or clone H46, 1 µg/mL) was used for immunoblotting, as previously reported (T. Hoshino, et al., Am J Respir Crit Care Med 176 (2007) 49-62).

[2] = target: T2, recombinant human MDA5 protein (human, UniProt Q9BYX4 1-1025); assay: electrochemiluminescence sandwich immunoassay (MSD), H46 coated as primary (capture) mAb
T2 construct: Expressed in SF9 cells with baculovirus; also called pPSC8/human MDA5 product; MDA5 standard; not shown: N-terminal 6X His tag, GST and turbo 3C protease cleavage site
T2 sequence: T1 sequence
Procedure: The human MDA5 sandwich immunoassay system was established using electrochemiluminescence in a MESOSCALE DISCOVERY (registered trademark) assay system (Meso Scale Japan, Tokyo, Japan). Briefly, mouse anti-human MDA5 monoclonal antibody (clone H46) was used as the primary mAb, dissolved at 2 µg/mL in phosphate-buffered saline (PBS), dispensed into plates in aliquots of 25 µL/well, and left undisturbed overnight at 4° C. The plates were then washed three times with 150 µL Quantikine Wash Buffer 1 (R&D Systems, Minneapolis, MN, USA). Block Ace blocking solution (100 µL/well; Nacalai Tesque, Kyoto, Japan) was added and incubated for at least one hour at room temperature to prevent nonspecific adhesion of the secondary antibody to the plates. The plates were then washed thrice. The samples were aliquoted at 25 µL/well. Recombinant human MDA5 protein diluted to 50 ng/mL, 10 ng/mL, 2 ng/mL, 400 pg/mL, 80 pg/mL, 16 pg/mL, and 3.2 pg/mL was used as a standard. After 1 h of incubation at room temperature, each well was washed thrice. Next, 2 µg/mL biotin-labeled mouse anti-human MDA5 secondary mAb (clone H27) was added at 25 µL/well, followed by incubation for 1 h at room temperature after which each well was washed three times. […] The amount of human MDA5 protein was measured using MESO QuickPlex SQ 120 according to the manufacturer’s protocol.

binding result [1]: binds | binding result [2]: binds
B1: mouse anti-human MDA5 monoclonal antibody (H46) (antibody, V domains shown)
VH: EFQLQQSGPELVKPGASVKISCKASGYSFTDYNMNWVKQSNGKSLEWIGVINPDYGSTSYNKKFKGKATLTVDQSSTTAYMQLNSLTSEDSAVYFCARDRYGNYFDYWGQGTTLTVSS
VL: QIVLTQSPAIMSASPGEKVTMTCSASSSLNYMHWYLQKPGTSPKRWIYDTSKLASGVPARFSGSGSGTSYSLTISSMEAEDAATYYCHQRSSYPITFGSGTKLEIK
notes: Mouse IgG2b from a hybridoma; also called clone H46; H46 [mouse IgG2b]
